# Data: article PMC3834327, “N ^6-Substituted AMPs Inhibit Mammalian Deoxynucleotide N-Hydrolase DNPH1” (PLoS ONE, 2013)
# Substrate: Nc1nc2c(ncn2[C@H]2C[C@H](O)[C@@H](COP(=O)(O)O)O2)c(=O)[nH]1
# Experiment: purified protein, by the assay type
# Conditions: other: substrate of human DNPH1; double reciprocal plots, five concentrations; pH 7.0
protein,measurement,value
human DNPH1 (Homo sapiens) (protein) MAAAMVPGRSESWERGEPGRPALYFCGSIRGGREDRTLYERIVSRLRRFGTVLTEHVAAAELGARGEEAAGGDRLIHEQDLEWLQQADVVVAEVTQPSLGVGYELGRAVAFNKRILCLFRPQSGRVLSAMIRGAADGSRFQVWDYEEGEVEALLDRYFEADPPGQVAASPDPTT,Km,57 ± 12 µM
same,kcat,0.002 s⁻¹
same,kcat/Km,35 M⁻¹ s⁻¹
